Assay results taken from US20040167074A1, “Therapeutic applications of mFLINT polypeptides” (priority 1998, published 2004).

Experiments:
[1] = system: bone marrow progenitor cells; test: CFU assay of bone marrow cells expanded in vitro with SCF and IL-6; format: cell-based, mouse; conditions: FIG. 9, mFLINT 1 ug/ml, 3 days with SCF and IL-6
Protocol: A—Bone marrow cells from irradiated mice—This experiment was designed to determine whether mFLINT could improve the recovery of murine hematopoietic progenitor cells from irradiation, by forcing in vitro expansion with hematopoietic cytokines. Mice were injected with 3 mg of 5-flouro-uracil, i.p., and four days later, femurs were removed and flushed to isolate bone marrow (BM) cells. 1×10^6 BM cells were seeded in each well of a 24 well tray in triplicate in Iscoves modified dulbeccos media (IMDM)+10% FBS and were stimulated for 3 days with the cytokines stem cell factor (SCF) and IL-6, in the presence or absence of mFLINT (1 ug/ml). After a 3-day in vitro expansion period, 5×10^3 cells were plated out in triplicate for the CFU assay.

hFasLigand (Flag-tagged) = target: T1, hFasLigand (Flag-tagged) (Homo sapiens, UniProt P48023); test: ELISA: FasLigand binding to adsorbed FLINT and Fas; conditions: 100 ng receptor adsorbed
T1 sequence (P48023 103-281 limits assumed): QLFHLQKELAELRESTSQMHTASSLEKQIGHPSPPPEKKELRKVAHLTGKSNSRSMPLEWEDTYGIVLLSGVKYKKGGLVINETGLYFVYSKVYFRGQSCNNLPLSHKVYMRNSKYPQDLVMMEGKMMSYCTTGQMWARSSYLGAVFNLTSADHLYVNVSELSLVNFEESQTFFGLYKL
Protocol: FLINT and Fas (100 ng of each) were adsorbed on to an ELISA plate. hFasLigand (Flag-tagged) was added at different concentrations to a maximum concentration of 300 ng down to 0.1 ng on TBST plus a 0.1% solution containing 1 microgram/ml of M2 Abs. After washing of the plate, anti-mouse-Abs-HRP (1:3000 dilution, Bio-Rad) was added to the wells. After washings, visualization enzymatic reaction using ABTS as a substrate was performed.

FasL = target: T2, FasL (Homo sapiens, UniProt P48023); test: BiaCore real-time biomolecular interaction analysis (surface plasmon resonance); format: binding
T2 construct: purchased Kamiya Biomedical Company
T2 sequence (P48023 130-281 limits assumed): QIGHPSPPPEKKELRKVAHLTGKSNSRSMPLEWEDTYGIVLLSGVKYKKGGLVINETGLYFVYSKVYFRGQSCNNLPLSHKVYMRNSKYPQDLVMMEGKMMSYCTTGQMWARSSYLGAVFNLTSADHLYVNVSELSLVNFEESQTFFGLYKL
From the text: FLINT-Fas L binding may be confirmed and specifics of binding determined (e.g., kinetics, specificity, affinity, cooperativity, relative binding pattern, concentration) using real-time biomolecular interaction analysis. This technology confers the ability to study biomolecular interactions in real time, without labeling any of the interactants. In particular, it takes advantage of the optical phenomenon surface plasmon resonance, and detection depends on changes in the mass concentration of macromolecules at the biospecific interface. Interactions are followed in real time, so that kinetic information is readily derived. In many cases, investigations can be performed without prior purification of components.
Measurements are accomplished using a BiaCore 2000 instrument. The instrument, accompanying chips, immobilization and maintenance kits and buffers are obtained from Biacore AB, Rapsgatan 7, S-754 50 Uppsala, Sweden. FasL is obtained from Kamiya Biomedical Company, 910 Industry Drive, Seattle, Wash. 98188, Guanidine Isothiocyanate Solution from GibcoBRL, and mFLINT is prepared as in Examples 8 and 9.
Experiments using immobilized FasL loaded with a solution containing mFLINT. […] This is explained by the fact that FasL is a trimer, yet here FasL monomer was bound. Further experiments utilized bound FLINT with FasL in solution, allowing for trimer formation. […] This observations indicate that FLINT should effectively compete with Fas for FasL binding, which likely explains the therapeutic benefit observed in experiments detailed below.

TRANCE = target: T3, TRANCE (Homo sapiens, UniProt O14788); test: Dot blot binding of mFLINT to TNF ligands
T3 construct: purchased
T3 sequence (O14788 140-317 limits assumed): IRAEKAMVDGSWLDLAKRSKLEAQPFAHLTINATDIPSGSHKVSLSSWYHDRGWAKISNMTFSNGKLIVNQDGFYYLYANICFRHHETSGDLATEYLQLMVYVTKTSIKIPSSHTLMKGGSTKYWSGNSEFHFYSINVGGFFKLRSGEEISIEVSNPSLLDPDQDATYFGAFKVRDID

TNFα = target: T4, TNFα (Homo sapiens, UniProt P01375); test: Dot blot binding of mFLINT to TNF ligands
T4 construct: purchased
T4 sequence (P01375 77-233 limits assumed, species assumed): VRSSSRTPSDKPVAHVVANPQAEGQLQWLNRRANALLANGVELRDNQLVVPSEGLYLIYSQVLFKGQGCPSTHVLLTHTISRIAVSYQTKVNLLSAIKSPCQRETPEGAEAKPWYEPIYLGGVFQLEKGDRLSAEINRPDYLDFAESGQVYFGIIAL

osteoclasts = test: Murine osteoclast differentiation assay (TRAP staining); format: cell-based, mouse; conditions: mean and standard error of 6 wells
Protocol: Male Balb/C mice (4-8 weeks old) were euthanized with CO2, the femurs removed, and the marrow flushed out of the femurs with growth medium. Bone marrow cells were pelleted by centrifugation at 500×g for 6 min. and resuspended in the growth medium (RPMI 1640 plus 5% heat inactivated fetal bovine-serum and 1% antibiotic-antimycotic solution). The marrow population (5×10^4 cells/cm^2) was seeded in tissue culture dishes in which BALC cells (a stable cell line derived from neonatal mouse calvariae, 1.5×10^4 cells/cm^2) had been plated 2 h prior to addition of bone marrow. The cells were cultured for 7 days in a humidified incubator at 37° C. with 5% CO2 with medium changes on days 3 and 5. Cultures were treated with or without 10^−8M 1,25-(OH)2D3 on days 0, 3, and 5. In addition, -the cells were treated with or without secreted mFLINT protein purified from the conditioned medium of cells transfected with mFLINT gene (FIG. 1). Following 7 days of culture, the cells in 24-well cluster dishes were fixed with formalin (3.7% for 10 min) and then stained for tartrate-resistant acid phosphatase (TRAP) using a modification of the method described by Graves, L and Jilka R L, J Cell Physiology 145:102 1990. The number of osteoclasts (TRAP-positive cells containing 3 or more nuclei) was quantitated.

B1: mFLINT: mature FLINT without leader peptide (FIG. 3), soluble TNFR superfamily member, made according to Examples 8 and 9 (protein)
chain: VAETPTYPWRDAETGERLVCAQCPPGTFVQRPCRRDSPTTCGPCPPRHYTQFWNYLERCRYCNVLCGEREEEARACHATHNRACRCRTGFFAHAGFCLEHASCPPGAGVIAPGTPSQNTQCQPCPPGTFSASSSSSEQCQPHRNCTALGLALNVPGSSSHDTLCTSCTGFPLSTRVPGAEECERAVIDFVAFQDISIKRLQRLLQALEAPEGWGPTPRAGRAALQLKLRRRLTELLGAQDGALLVRLLQALRVARMPGLERSVRERFLPVH
modifications: glycosylated
[1]; control 750, p<0.007
  CFU-GEMM colonies: 3,000 colonies/3×10^6 stimulated BM cells
[1]; control 8,000, p<0.039
  CFU-GM colonies: 15,000 colonies/3×10^6 stimulated BM cells
[1]; control 15,000, p<0.003
  CFU-E colonies: 33,000 colonies/3×10^6 stimulated BM cells
hFasLigand (Flag-tagged); FasL 0.1 ng
  OD, 405 nM: 0
hFasLigand (Flag-tagged); FasL 0.5 ng
  OD, 405 nM: 0
hFasLigand (Flag-tagged); FasL 1.0 ng
  OD, 405 nM: .02
hFasLigand (Flag-tagged); FasL 5.0 ng
  OD, 405 nM: .04
hFasLigand (Flag-tagged); FasL 10 ng
  OD, 405 nM: .12
hFasLigand (Flag-tagged); FasL 50 ng
  OD, 405 nM: .28
hFasLigand (Flag-tagged); FasL 100 ng
  OD, 405 nM: .78
FasL; bound FLINT with FasL in solution, allowing trimer formation
  KD for FLINT-FasL relative to immobilized-FasL experiment: 2 orders of magnitude better
FasL; immobilized FasL (monomer bound), analyte in solution
  Kd: 113 nM
TRANCE
  binding in dot blot: No appreciable binding
TNFα
  binding in dot blot: No appreciable binding
osteoclasts; FLINT 0.01 ng/ml, control 145.50
  Osteoclasts/well: 40.50 ± 2.39 Osteoclasts/well
osteoclasts; FLINT 0.10 ng/ml
  Osteoclasts/well: 65.50 ± 3.33 Osteoclasts/well
osteoclasts; FLINT 1.00 ng/ml
  Osteoclasts/well: 97.50 ± 3.10 Osteoclasts/well
osteoclasts; FLINT 10.00 ng/ml
  Osteoclasts/well: 170.17 ± 8.26 Osteoclasts/well
osteoclasts; FLINT 100.00 ng/ml
  Osteoclasts/well: 335.00 ± 8.90 Osteoclasts/well
